Experiments:
[1] = target: T1, human PD-1-Ig fusion protein (human, UniProt Q15116 25-167); assay: ELISA on human PD-1-Ig fusion protein
T1 construct: not shown: Ig part of the fusion protein

[2] = target: T2, human PD-1 expressed on cells (human, UniProt Q15116 25-288); assay: FACS on human PD-1 transfected Jurkat cells
T2 construct: whole, on cells; those cells are treated here as the same human PD-1; also called Programmed Death 1; human PD-1 transfected Jurkat cells

[3] = target: T3, cynomolgus PD-1 expressed on cells (cynomolgus); assay: FACS on cells transfected with cynomolgus PD-1
T3 construct: whole, on cells; also called cells transfected with cynomolgus PD-1

[4] = target: T3, cynomolgus PD-1 expressed on cells; assay: FACS on cynomolgus T cells (e.g., CD3/CD28 activated CD4 T cells)
[5] = target: T2, human PD-1 expressed on cells; assay: competition binding assay; blocks PD-L1 binding to human PD-1-expressing 300.19 cells
[6] = target: T2, human PD-1 expressed on cells; assay: competition binding assay; blocks PD-L2 binding to human PD-1-expressing 300.19 cells
[7] = target: T2, human PD-1 expressed on cells; assay: cell-based or functional assay
[8] = target: T2, human PD-1 expressed on cells; assay: FACS blocking of PD-L1-Ig binding to PD-1-expressing 300.19 cells

T2 sequence (Q15116 25-288): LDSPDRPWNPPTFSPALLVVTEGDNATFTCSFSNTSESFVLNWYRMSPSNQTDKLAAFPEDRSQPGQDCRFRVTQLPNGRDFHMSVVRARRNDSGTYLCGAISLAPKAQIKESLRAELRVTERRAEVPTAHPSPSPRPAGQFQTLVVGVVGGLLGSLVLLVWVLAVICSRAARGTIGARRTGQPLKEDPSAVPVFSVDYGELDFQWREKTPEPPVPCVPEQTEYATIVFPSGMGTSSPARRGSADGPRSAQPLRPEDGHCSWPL
T1 sequence (Q15116 25-167): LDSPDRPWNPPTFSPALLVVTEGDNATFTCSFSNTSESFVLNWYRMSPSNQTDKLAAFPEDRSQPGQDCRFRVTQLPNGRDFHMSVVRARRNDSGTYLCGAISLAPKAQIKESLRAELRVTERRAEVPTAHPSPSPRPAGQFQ

B1: murine anti-PD-1 monoclonal antibody BAP049 (antibody, V domains shown)
VH: QVQLQQSGSELVRPGASVKLSCKASGYTFTTYWMHWVRQRPGQGLEWIGNIYPGTGGSNFDEKFKNRTSLTVDTSSTTAYMHLASLTSEDSAVYYCTRWTTGTGAYWGQGTLVTVSA
VL: DIVMTQSPSSLTVTAGEKVTMSCKSSQSLLDSGNQKNFLTWYQQKPGQPPKLLIFWASTRESGVPDRFTGSGSVTDFTLTISSVQAEDLAVYYCQNDYSYPCTFGGGTKLEIK
notes: the murine constant regions are not; also called Mu mAb; murine mAb BAP049
B1 was tested, and the Kd [1] was 0.04 nM, the Kd [2] was 0.06 nM and the Kd [3] was 0.6 nM. The Kd [4] was 0.4 nM, the IC50 [5] was 0.3 nM and the IC50 [6] was 0.9 nM.

B2: humanized anti-PD-1 antibody BAP049-Clone-E (antibody, human IgG4 S228P, kappa)
heavy: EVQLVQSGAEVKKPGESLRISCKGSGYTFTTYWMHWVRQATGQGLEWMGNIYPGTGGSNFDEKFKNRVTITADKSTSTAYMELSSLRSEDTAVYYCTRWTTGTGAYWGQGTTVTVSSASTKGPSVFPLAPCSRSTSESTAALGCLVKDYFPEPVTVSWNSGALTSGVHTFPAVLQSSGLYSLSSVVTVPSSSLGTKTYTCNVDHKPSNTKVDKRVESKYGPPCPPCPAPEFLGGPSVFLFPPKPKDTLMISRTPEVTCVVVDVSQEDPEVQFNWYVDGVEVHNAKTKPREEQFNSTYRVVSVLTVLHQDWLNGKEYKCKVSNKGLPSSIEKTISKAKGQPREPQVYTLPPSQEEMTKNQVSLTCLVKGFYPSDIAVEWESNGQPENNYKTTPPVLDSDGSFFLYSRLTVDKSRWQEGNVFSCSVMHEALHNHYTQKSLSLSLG
light: EIVLTQSPATLSLSPGERATLSCKSSQSLLDSGNQKNFLTWYQQKPGQAPRLLIYWASTRESGVPSRFSGSGSGTDFTFTISSLEAEDAATYYCQNDYSYPYTFGQGTKVEIKRTVAAPSVFIFPPSDEQLKSGTASVVCLLNNFYPREAKVQWKVDNALQSGNSQESVTEQDSKDSTYSLSSTLTLSKADYEKHKVYACEVTHQGLSSPVTKSFNRGEC
With B2 the “ex vivo EC50 for PD-1 blockade” value [7] was 0.42 µg/mL.

B3: humanized anti-PD-1 antibody BAP049-hum09 (antibody, human IgG4 S228P, kappa)
heavy: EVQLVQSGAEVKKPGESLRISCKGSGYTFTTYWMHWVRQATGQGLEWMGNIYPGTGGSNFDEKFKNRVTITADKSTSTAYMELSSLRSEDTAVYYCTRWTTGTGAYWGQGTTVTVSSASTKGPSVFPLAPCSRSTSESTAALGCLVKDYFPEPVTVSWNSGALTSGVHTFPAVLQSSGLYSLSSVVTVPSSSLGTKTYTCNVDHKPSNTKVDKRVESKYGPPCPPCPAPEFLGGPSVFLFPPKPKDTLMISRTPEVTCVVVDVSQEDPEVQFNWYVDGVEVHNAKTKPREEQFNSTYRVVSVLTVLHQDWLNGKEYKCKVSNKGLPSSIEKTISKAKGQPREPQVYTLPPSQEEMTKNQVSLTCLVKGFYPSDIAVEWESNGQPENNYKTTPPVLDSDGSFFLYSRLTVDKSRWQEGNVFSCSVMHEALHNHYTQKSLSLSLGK
light: EIVLTQSPDFQSVTPKEKVTITCKSSQSLLDSGNQKNFLTWYQQKPGQAPRLLIYWASTRESGVPSRFSGSGSGTDFTFTISSLEAEDAATYYCQNDYSYPYTFGQGTKVEIKRTVAAPSVFIFPPSDEQLKSGTASVVCLLNNFYPREAKVQWKVDNALQSGNSQESVTEQDSKDSTYSLSSTLTLSKADYEKHKVYACEVTHQGLSSPVTKSFNRGEC
notes: Whole IgG4(S228P)/kappa; tested as concentrated supernatant of transiently transfected CHO cells; also called Clone No. 09
With B3 the “IC50 (read off the curve)” value [8] was roughly 1 µg/mL.

— US20180222982A1 (Novartis, published 2018)
